Source: the RNAGym collection of RNA variant scans (doi:10.1101/gr.219683.116)

B1: mRNA-splicing (parent)
chain: AGUUGCUGCUGGGAGCUCCAGCACAGUGAAAUGGACAGAAGGGCAGAGCAA

Variants of: B1
Experiment: exon inclusion enrichment index; higher = more inclusion; WT1 exon 5 minigene, HEK293

| Variant | exon inclusion enrichment index |
| --- | --- |
| C6A U7C C9A U10C A40U G41C | 3.18 |
| C6A U7C C9A U10C A40U G41U | 1.9 |
| C6A U7C C9A U10C A40U G41A | 0.347 |
| C6A U7C C9A U10C A25C G26U | 3.89 |
| C6A U7C C9A U10C A25C G26C | 4.09 |
| C6A U7C C9A U10C A25C G26A | 4.93 |
| C6A U7C C9A U10C A20U | 3.39 |
| C6A U7C C9A U10C A20G | 3.85 |
| C6A U7C C9A U10C A20C | 3.02 |
| C6A U7C C9A U10C C19G A20C | 3.87 |
| C6A U7C C9A U10C C19G A20G | 2.38 |
| C6A U7C C9A U10C C19G A20U | 3.25 |
| C6A U7A C9A U10A U32C G33U | 0.476 |
| C6A U7A C9A U10A U32C G33A | 0.27 |
| C6A U7A C9A U10A U32C G33C | 1.09 |
| C6A U7C C9A G11U | 2.1 |
| C6A U7C C9A G11C | 2.88 |
| C6A U7C C9A G11A | 0.337 |
| C6A U7A G8U C9G U10A | 0.135 |
| C6A U7A C9A U10A G42A G43U | 2.73 |
| C6A U7A C9A U10A G42A G43A | 2.97 |
| C6A U7A C9A U10A G42A G43C | 3.53 |
| C6A U7A C9A U10A G38A A39U | 0.0204 |
| C6A U7A C9A U10A G38A A39C | 0.579 |

| Variant | exon inclusion enrichment index |
| --- | --- |
| C6A U7A C9A U10A G38A A39G | 0.862 |
| C6A U7A C9A U10A G34U A35U | 0.0771 |
| C6A U7C C9A U10C A37G G38A | 3 |
| C6A U7C C9A U10C A37G G38U | 1.68 |
| C6A U7C C9A U10C A37G G38C | 3.21 |
| C6A U7C C9A U10C A31C U32C | 4.42 |
| C6A U7C C9A U10C A31C U32G | 3.9 |
| C6A U7C C9A U10C A31C U32A | 2.78 |
| C6A U7C C9A U10C C16U U17A | 2.9 |
| C6A U7C C9A U10C C16U U17C | 2.51 |
| C6A U7C C9A U10C C16U U17G | 2.04 |
| C6A U7A U10A | 0.234 |
| C6A U7A U10G | 0.84 |
| C6A U7A U10C | 2.53 |
| C6A U7A C9A U10A U17A C18G | 0.498 |
| C6A U7A C9A U10A U17A C18U | 0.445 |
| C6A U7A C9A U10A U17A C18A | 0.427 |
| C6A U7C C9A U10C A31G U32A | 5.2 |
| C6A U7C C9A U10C A31G U32C | 4.39 |
| C6A U7C C9A U10C A31G U32G | 2.7 |
| C6A U7C C9A U10C A47C G48C | 2.81 |
| C6A U7C C9A U10C A47C G48U | 3.09 |
| C6A U7C C9A U10C A47C G48A | 2.16 |
| C6A U7C C9A U10C C18U C19A | 0.757 |

| Variant | exon inclusion enrichment index |
| --- | --- |
| C6A U7C C9A U10C C18U C19G | 1.93 |
| C6A U7C C9A U10C C18U C19U | 0.145 |
| C6A U7C C9A U10C C19G | 3.61 |
| C6A U7C C9A U10C C19U | 0.759 |
| C6A U7C C9A U10C C19A | 2.55 |
| C6A U7C C9A U10C C18A C19U | 0.374 |
| C6A U7C C9A U10C C18A C19G | 0.998 |
| C6A U7C C9A U10C C18A C19A | 1.44 |
| C6A U7A G8A C9U U10A | 0.0156 |
| C6A U7C C9A U10C A35C | 1.54 |
| C6A U7C C9A U10C A35U | 1.36 |
| C6A U7C C9A U10C A35G | 1.79 |
| C6A U7A G8A C9G U10A | 0.2 |
| C6A U7C C9A U10C A14G G15C | 2.29 |
| C6A U7C C9A U10C A14G G15A | 3.53 |
| C6A U7C C9A U10C A14G G15U | 2.01 |
| C6A U7A C9A U10A G43A C44G | 2.4 |
| C6A U7A C9A U10A G43A C44U | 0.656 |
| C6A U7A C9A U10A G43A C44A | 1.84 |
| C6A U7A G8U C9U U10A | 0.00366 |
| C6A U7C C9A U10C A45U G46U | 1.75 |
| C6A U7C C9A U10C A45U G46A | 2.51 |
| C6A U7C C9A U10C A45U G46C | 2.51 |
| C6A U7C C9A U10C A40C G41U | 1.87 |

| Variant | exon inclusion enrichment index |
| --- | --- |
| C6A U7C C9A U10C A40C G41C | 3.56 |
| C6A U7C C9A U10C A40C G41A | 1.84 |
| C6A U7C C9A U10C A23G C24U | 1.95 |
| C6A U7C C9A U10C A23G C24A | 4.13 |
| C6A U7C C9A U10C A23G C24G | 4.2 |
| C6A U7A C9A U10A G42A | 1.81 |
| C6A U7A C9A U10A G42U | 0.988 |
| C6A U7A C9A U10A G42C | 1.99 |
| C6A U7A C9A U10A G48C | 1.15 |
| C6A U7A C9A U10A G48U | 1.17 |
| C6A U7A C9A U10A G48A | 1.3 |
| C6A U7C C9A U10C A39G A40U | 0.497 |
| C6A U7C C9A U10C A39G A40G | 0.569 |
| C6A U7C C9A U10C A39G A40C | 3.81 |
| C6A U7A C9A U10A U17C C18G | 0.655 |
| C6A U7A C9A U10A U17C C18A | 0.476 |
| C6A U7A C9A U10A U17C C18U | 0.491 |
| C6A U7C C9A U10C C16G | 2.49 |
| C6A U7C C9A U10C C16A | 3.82 |
| C6A U7C C9A U10C C16U | 3.55 |
| C6A U7A C9A U10A G46A | 0.993 |
| C6A U7A C9A U10A G46C | 0.722 |
| C6A U7A C9A U10A G46U | 0.388 |
| C6A U7C C9A U10C A29U | 1.74 |

| Variant | exon inclusion enrichment index |
| --- | --- |
| C6A U7C C9A U10C A29G | 3.29 |
| C6A U7C C9A U10C A29C | 3.21 |
| C6A U7A C9A U10A G46A A47U | 0.928 |
| C6A U7A C9A U10A G46A A47G | 0.249 |
| C6A U7A C9A U10A G46A A47C | 1.64 |
| C6A U7C C9A U10C A25G G26A | 5.01 |
| C6A U7C C9A U10C A25G G26C | 4.03 |
| C6A U7C C9A U10C A25G G26U | 4.03 |
| C6A U7A C9A U10A G42C G43A | 1.78 |
| C6A U7A C9A U10A G42C G43C | 1.88 |
| C6A U7A C9A U10A G42C G43U | 1.96 |
| C6A U7A G8A U10A | 0.0891 |
| C6A U7A C9A U10A G41A G42C | 1.25 |
| C6A U7A C9A U10A G41A G42U | 0.617 |
| C6A U7A C9A U10A G41A G42A | 0.559 |
| C6A U7A G8A C9A U10A | 0.207 |
| C6A U7A G8A C9A U10C | 1.36 |
| C6A U7A G8C C9G U10A | 0.781 |
| C6A U7C C9A U10C A47G G48A | 2.43 |
| C6A U7C C9A U10C A47G G48U | 0.925 |
| C6A U7C C9A U10C A47G G48C | 1.71 |
| C6A U7C C9A U10C A45G G46A | 4.93 |
| C6A U7C C9A U10C A45G G46C | 3.3 |
| C6A U7C C9A U10C A45G G46U | 2.89 |

| Variant | exon inclusion enrichment index |
| --- | --- |
| C6A U7A C9A U10A G41C G42C | 2.14 |
| C6A U7A C9A U10A G41C G42A | 1 |
| C6A U7A C9A U10A G41C G42U | 2.17 |
| C6A U7C C9A U10C A23C | 3.27 |
| C6A U7C C9A U10C A23U | 2.78 |
| C6A U7C C9A U10C A23G | 4.36 |
| C6A U7C C9A U10C C16G U17G | 0.621 |
| C6A U7C C9A U10C C16G U17C | 1.82 |
| C6A U7C C9A U10C C16G U17A | 3.24 |
| C6A U7A C9A U10A G41U G42C | 1.58 |
| C6A U7A C9A U10A G41U G42U | 0.717 |
| C6A U7A C9A U10A G41U G42A | 0.192 |
| C6A U7A G8U C9A | 0.467 |
| C6A U7C C9A U10C A39U A40U | 1.76 |
| C6A U7C C9A U10C A39U A40G | 1.39 |
| C6A U7C C9A U10C A39U A40C | 3.44 |
| C6A U7C | 0.264 |
| C6A U7C C9A U10C A40G G41C | 3.6 |
| C6A U7C C9A U10C A40G G41U | 2.58 |
| C6A U7C C9A U10C A40G G41A | 1.83 |
| C6A U7C C9A U10C A35U C36G | 0.375 |
| C6A U7C C9A U10C A35U C36A | 0.00835 |
| C6A U7C C9A U10C A35U C36U | 0.135 |
| C6A U7C C9A U10C A29G A30C | 2.23 |

| Variant | exon inclusion enrichment index |
| --- | --- |
| C6A U7C C9A U10C A29G A30G | 3.23 |
| C6A U7C C9A U10C A29G A30U | 1.72 |
| C6A U7C C9A U10C A25G | 4.53 |
| C6A U7C C9A U10C A25U | 3.47 |
| C6A U7C C9A U10C A25C | 4.45 |
| C6A U7C C9A U10C A29C A30U | 2.76 |
| C6A U7C C9A U10C A29C A30C | 3.72 |
| C6A U7C C9A U10C A29C A30G | 4.07 |
| C6A U7C C9A U10C A40U | 2.61 |
| C6A U7C C9A U10C A40C | 3.36 |
| C6A U7C C9A U10C A40G | 3.27 |
| C6A U7A C9A U10A G43U C44U | 0.125 |
| C6A U7A C9A U10A G43U C44G | 0.238 |
| C6A U7A C9A U10A G43U C44A | 0.0263 |
| C6A U7C C9A U10C A39C A40G | 3.55 |
| C6A U7C C9A U10C A39C A40U | 3.22 |
| C6A U7C C9A U10C A39C A40C | 3.31 |
| C6A U7A C9A U10A G38U | 0.223 |
| C6A U7A C9A U10A G38C | 0.524 |
| C6A U7A C9A U10A G38A | 0.314 |
| C6A U7A C9A U10A U17C | 0.424 |
| C6A U7A C9A U10A U17A | 0.63 |
| C6A U7A C9A U10A U17G | 0.51 |
